PMC9418313, “Multivalent interactions between molecular components involved in fast endophilin mediated endocytosis drive protein phase separation” (Nature Communications, 2022)

B1: third intracellular loop (TIL) of the human β1-adrenergic receptor (aa 246–325) (domain or fragment, UniProt P08588 246-325, looked up)
chain: RVFREAQKQVKKIDSCERRFLGGPARPPSPSPSPVPAPAPPPGPPRPAAAAATAPLANGRAGKRRPSRLVALREQKALKT
modifications: Alexa 488 (5-SDP ester) at the N-terminal on the labelled fraction
notes: β1-adrenergic receptor, human, third intracellular loop, 80 amino acids, aa 246–325; Cloned in pGEX6p1; GST cleaved by PreScission protease; also called TIL-Alexa 488; source: E. coli BL21-CodonPlus(DE3)-RIL, purified (GST Trap, cation exchange)
B2: lamellipodin C-terminal domain fragment LPD^850–1250 with C-terminal His6 tag (domain or fragment, UniProt Q70E73 850-1250, looked up)
chain: PPPSPLSPVPSVVKQIASQFPPPPTPPAMESQPLKPVPANVAPQSPPAVKAKPKWQPSSIPVPSPDFPPPPPESSLVFPPPPPSPVPAPPPPPPPTASPTPDKSGSPGKKTSKTSSPGGKKPPPTPQRNSSIKSSSGAEHPEPKRPSVDSLVSKFTPPAESGSPSKETLPPPAAPPKPGKLNLSGVNLPGVLQQGCVSAKAPVLSGRGKDSVVEFPSPPSDSDFPPPPPETELPLPPIEIPAVFSGNTSPKVAVVNPQPQQWSKMSVKKAPPPTRPKRNDSTRLTQAEISEQPTMATVVPQVPTSPKSSLSVQPGFLADLNRTLQRKSITRHGSLSSRMSRAEPTATMDDMALPPPPPELLSDQQKAGYGGSHISGYATLRRGPPPAPPKRDQNTKLSRDW
modifications: Alexa 647 succinimidyl ester on the labelled fraction
notes: Synthesized and cloned into pGEX6p1 by Biomatik; also called LPD C-terminal domain; source: E. coli BL21-CodonPlus(DE3)-RIL, purified (Ni-NTA agarose, cation exchange); not shown: His6, C-terminal, kept
B3: full-length human amphiphysin 1 (natural protein, UniProt P49418 1-695, looked up)
chain: MADIKTGIFAKNVQKRLNRAQEKVLQKLGKADETKDEQFEEYVQNFKRQEAEGTRLQRELRGYLAAIKGMQEASMKLTESLHEVYEPDWYGREDVKMVGEKCDVLWEDFHQKLVDGSLLTLDTYLGQFPDIKNRIAKRSRKLVDYDSARHHLEALQSSKRKDESRISKAEEEFQKAQKVFEEFNVDLQEELPSLWSRRVGFYVNTFKNVSSLEAKFHKEIAVLCHKLYEVMTKLGDQHADKAFTIQGAPSDSGPLRIAKTPSPPEEPSPLPSPTASPNHTLAPASPAPARPRSPSQTRKGPPVPPLPKVTPTKELQQENIISFFEDNFVPEISVTTPSQNEVPEVKKEETLLDLDFDPFKPEVTPAGSAGVTHSPMSQTLPWDLWTTSTDLVQPASGGSFNGFTQPQDTSLFTMQTDQSMICNLAESEQAPPTEPKAEEPLAAVTPAVGLDLGMDTRAEEPVEEAVIIPGADADAAVGTLVSAAEGAPGEEAEAEKATVPAGEGVSLEEAKIGTETTEGAESAQPEAEELEATVPQEKVIPSVVIEPASNHEEEGENEITIGAEPKETTEDAAPPGPTSETPELATEQKPIQDPQPTPSAPAMGAADQLASAREASQELPPGFLYKVETLHDFEAANSDELTLQRGDVVLVVPSDSEADQDAGWLVGVKESDWLQYRDLATYKGLFPENFTRRLD
modifications: Alexa 488 C5-maleimide
notes: amphiphysin 1, human, full length; Plasmid from Pietro De Camilli's lab; also called Amph1; Amph1-Alexa 488
B4: FBP17 (natural protein, UniProt Q96RU3 1-617, looked up)
chain: MSWGTELWDQFDNLEKHTQWGIDILEKYIKFVKERTEIELSYAKQLRNLSKKYQPKKNSKEEEEYKYTSCKAFISNLNEMNDYAGQHEVISENMASQIIVDLARYVQELKQERKSNFHDGRKAQQHIETCWKQLESSKRRFERDCKEADRAQQYFEKMDADINVTKADVEKARQQAQIRHQMAEDSKADYSSILQKFNHEQHEYYHTHIPNIFQKIQEMEERRIVRMGESMKTYAEVDRQVIPIIGKCLDGIVKAAESIDQKNDSQLVIEAYKSGFEPPGDIEFEDYTQPMKRTVSDNSLSNSRGEGKPDLKFGGKSKGKLWPFIKKNKLMSLLTSPHQPPPPPPASASPSAVPNGPQSPKQQKEPLSHRFNEFMTSKPKIHCFRSLKRGLSLKLGATPEDFSNLPPEQRRKKLQQKVDELNKEIQKEMDQRDAITKMKDVYLKNPQMGDPASLDHKLAEVSQNIEKLRVETQKFEAWLAEVEGRLPARSEQARRQSGLYDSQNPPTVNNCAQDRESPDGSYTEEQSQESEMKVLATDFDDEFDDEEPLPAIGTCKALYTFEGQNEGTISVVEGETLYVIEEDKGDGWTRIRRNEDEEGYVPTSYVEVCLDKNAKDS
modifications: Alexa 488 C5-maleimide
notes: Obtained from Harvey McMahon's lab; also called F-BAR family protein FBP17; FBP17 (Alexa 488); source: E. coli BL21-CodonPlus(DE3)-RIL, purified (GSTrap, size exclusion)
B5: full-length rat endophilin A1 (single-cysteine form) (natural protein, UniProt O35179 1-352, looked up)
chain: MSVAGLKKQFHKATQKVSEKVGGAEGTKLDDDFKEMERKVDVTSRAVMEIMTKTIEYLQPNPASRAKLSMINTMSKIRGQEKGPGYPQAEALLAEAMLKFGRELGDDSNFGPALGEVGEAMRELSEVKDSLDMEVKQNFIDPLQNLHDKDLREIQHHLKKLEGRRLDFDYKKKRQGKIPDEELRQALEKFDESKEIAESSMFNLLEMDIEQVSQLSALVQAQLEYHKQAVQILQQVTVRLCERIRQASSQPRREYQPKPRMSLEFATGDGTQPNGGLSHTGTPKPAGVQMDQPSSRALYDFEPENEGELGFKEGDIITLTNQIDENWYEGMLHGQSGFFPINYVEILVALPH
modifications: Alexa 594 or Alexa 488 C5-maleimide on the small labelled fraction (about 4-10 mol%) mixed with unlabelled protein
notes: endophilin A1, rat, full length, mutated to a single-cysteine form for labeling; also called A1 isoform of endophilin, from rat; full-length endophilin
B6: endophilin ΔH0 mutant (domain or fragment)
chain: GGAEGTKLDDDFKEMERKVDVTSRAVMEIMTKTIEYLQPNPASRAKLSMINTMSKIRGQEKGPGYPQAEALLAEAMLKFGRELGDDCNFGPALGEVGEAMRELSEVKDSLDMEVKQNFIDPLQNLHDKDLREIQHHLKKLEGRRLDFDYKKKRQGKIPDEELRQALEKFDESKEIAESSMFNLLEMDIEQVSQLSALVQAQLEYHKQAVQILQQVTVRLEERIRQASSQPRREYQPKPRMSLEFATGDGTQPNGGLSHTGTPKPAGVQMDQPCCRALYDFEPENEGELGFKEGDIITLTNQIDENWYEGMLHGQSGFFPINYVEILVALPH
modifications: Alexa 594 C5-maleimide on the labelled fraction

What was measured:
[1] = target: endophilin N-BAR-only mutant (rat); assay: fluorescence intensity ratio of droplets vs. bulk solution (confocal microscopy); 1 µM Alexa 594-labeled variant with 25 µM of the same unlabeled variant, 10% PEG
[2] = target: full-length rat endophilin A1 (single-cysteine form) (rat) (UniProt O35179); assay: client partitioning into condensate droplets (confocal microscopy, apparent partition coefficient); endophilin (25 µM) droplets with 10% PEG; Alexa-labeled client at 250 nM to 1 µM mixed in before PEG; 20 mM HEPES, 150 mM NaCl, 1 mM TCEP, pH 7.4, room temperature; apparent
[3] = target: full-length rat endophilin A1 (single-cysteine form) (rat) (UniProt O35179)
[4] = target: B5; assay: cell-based or functional assay
[5] = target: B5; assay: client partitioning into condensate droplets (confocal microscopy, apparent partition coefficient); endophilin (25 µM) droplets with 10% PEG; Alexa-labeled client at 250 nM to 1 µM mixed in before PEG; 20 mM HEPES, 150 mM NaCl, 1 mM TCEP, pH 7.4, room temperature; apparent; details: both partners purified
[6] = target: the molecule itself; assay: fluorescence intensity ratio of droplets vs. bulk solution (confocal microscopy); 1 µM Alexa 594-labeled variant with 25 µM of the same unlabeled variant, 10% PEG

Molecule	threshold endophilin concentration for LLPS (10% PEG) in the presence of 10 µM client (10 µM without client) [4]	apparent partition coefficient (Kapp) [5]	other results
endophilin N-BAR-only mutant (domain or fragment)			fluorescence intensity ratio inside vs. outside droplets [1]: 1800
BIN1 isoform 9 (natural protein)			apparent partition coefficient (Kapp) [2]: 267
PRM7-His: heptameric repeat of a lamellipodin proline-rich motif (aa 970–981) joined by (Gly-Gly-Ser)4 linkers (from UniProt Q70E73 970-981; Q70E73 970-981; Q70E73 970-981; Q70E73 970-981; Q70E73 970-981; Q70E73 970-981; Q70E73 970-981) (designed binder)			threshold endophilin concentration for LLPS (10% PEG) in the presence of 10 µM client (10 µM without client) [3]: < 5 µM; apparent partition coefficient (Kapp) [2]: 26
B1	≤ 5 µM	138	
B2	≤ 5 µM	515	
B3	30 µM	352	
B4	15 µM	1130	
B5			fluorescence intensity ratio inside vs. outside droplets [6]: 480
B6			fluorescence intensity ratio inside vs. outside droplets [6]: 380
